In publication PMC5762688 (2018):

How the values were obtained:
[1] = molecular target: His6-importin α2/GST-importin β1 heterodimer (mouse), pre-dimerized (mouse, UniProt P52293 1-529; P70168 1-876)
[2] = molecular target: GST-exportin-1-His6/Ran-GTPγS complex, preformed (UniProt O14980 1-1071; P62826 1-216)
GST-exportin-1-His6/Ran-GTPγS complex, preformed, sequence (O14980 whole entry, one chain of several): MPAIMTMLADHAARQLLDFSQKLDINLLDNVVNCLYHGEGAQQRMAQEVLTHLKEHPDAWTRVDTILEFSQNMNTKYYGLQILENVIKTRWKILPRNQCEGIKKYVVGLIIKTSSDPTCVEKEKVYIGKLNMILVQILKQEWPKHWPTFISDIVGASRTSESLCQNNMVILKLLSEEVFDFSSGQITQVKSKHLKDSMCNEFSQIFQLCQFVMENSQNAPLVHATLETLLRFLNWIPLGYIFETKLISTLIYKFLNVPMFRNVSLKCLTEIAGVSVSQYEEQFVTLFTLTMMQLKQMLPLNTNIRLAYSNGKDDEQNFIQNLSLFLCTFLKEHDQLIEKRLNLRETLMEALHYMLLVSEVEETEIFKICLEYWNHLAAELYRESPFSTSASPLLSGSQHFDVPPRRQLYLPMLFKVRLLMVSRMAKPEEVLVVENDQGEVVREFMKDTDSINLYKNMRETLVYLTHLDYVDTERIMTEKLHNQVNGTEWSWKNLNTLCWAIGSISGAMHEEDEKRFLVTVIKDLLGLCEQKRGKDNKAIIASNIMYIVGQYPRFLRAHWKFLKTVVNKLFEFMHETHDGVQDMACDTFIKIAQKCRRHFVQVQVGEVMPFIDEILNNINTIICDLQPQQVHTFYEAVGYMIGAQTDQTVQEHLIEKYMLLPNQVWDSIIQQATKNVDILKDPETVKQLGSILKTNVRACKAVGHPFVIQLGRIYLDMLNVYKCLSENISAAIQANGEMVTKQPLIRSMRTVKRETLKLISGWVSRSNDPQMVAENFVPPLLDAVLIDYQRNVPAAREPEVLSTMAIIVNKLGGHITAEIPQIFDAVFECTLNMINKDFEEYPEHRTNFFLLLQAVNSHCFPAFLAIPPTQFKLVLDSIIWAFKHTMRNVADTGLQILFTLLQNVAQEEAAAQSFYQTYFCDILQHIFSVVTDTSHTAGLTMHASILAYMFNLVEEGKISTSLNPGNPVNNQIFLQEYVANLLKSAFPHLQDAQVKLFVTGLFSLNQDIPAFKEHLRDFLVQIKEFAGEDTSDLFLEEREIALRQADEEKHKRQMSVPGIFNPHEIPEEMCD

B1: Biotinylated Hendra virus V protein (natural protein)
chain: MDKLDLVNDGLDIIDFIQKNQKEIQKTYGRSSIQQPSTKDRTRAWEDFLQSTSGEHEQAEGGMPKNDGGTEGRNVEDLSSVTSSDGTIGQRVSNTRAWAEDPDDIQLDPMVTDVVYHDHGGECTGHGPSSSPERGWSYHMSGTHDGNVRAVPDTKVLPNAPKTTVPEEVREIDLIGLEDKFASAGLNPAAVPFVPKNQSTPTEEPPVIPEYYYGSGRRGDLSKSPPRGNVNLDSIKIYTSDDEDENQLEYEDEFAKSSSEVVIDTTPEDNDSINQEEVVGDPSDQGLEHPFPLGKFPEKEETPDVRRKDSLMQDSCKRGGVPKRLPMLSEEFECSGSDDPIIQELEREGSHPGGSLRLREPPQSSGNSRNQPDRQLKTGDAASPGGVQRPGTPMPKSRIMPIKKGHRREVSICWDGRRAWVEEWCNPVCSRITPQPRKQECYCGECPTECSQCCHEE
Kd [1]: 14.9 nM
Kd [2]: 9.2 nM
